B1: Angiopoietin-1 (Ang1) (protein)
chain: HIGCSNQRRSPENSGRRYNRIQHGQCAYTFILPEHDGNCRESTTDQYNTNALQRDAPHVEPDFSSQKLQHLEHVMENYTQWLQKLENYIVENMKSEMAQIQQNAVQNHTATMLEIGTSLLSQTAEQTRKLTDVETQVLNQTSRLEIQLLENSLSTYKLEKQLLQQTNEILKIHEKNSLLEHKILEMEGKHKEELDTLKEEKENLQGLVTRQTYIIQELEKQLNRATTNNSVLQKQQLELMDTVHNLVNLCTKEGVLLKGGKREEEKPFRDCADVYQAGFNKSGIYTIYINNMPEPKKVFCNMDVNGGGWTVIQHREDGSLDFQRGWKEYKMGFGNPSGEYWLGNEFIFAITSQRQYMLRIELMDWEGNRAYSQYDRFHIGNEKQNYRLYLKGHTGTAGKQSSLILHGADFSTKDADNDNCMCKCALMLTGGWWFDACGPSNLNGMFYTAGQNHGKLNGIKWHYFKGPSYSLRSTTMMIRPLDF
B2: activated protein C (APC) (protein)
chain 1: ANSFLEELRHSSLERECIEEICDFEEAKEIFQNVDDTLAFWSKHVDGDQCLVLPLEHPCASLCCGHGTCIDGIGSFSCDCRSGWEGRFCQREVSFLNCSLDNGGCTHYCLEEVGWRRCSCAPGYKLGDDLLQCHPAVKFPCGRPWKRMEKKRSHL
chain 2: LIDGKMTRRGDSPWQVVLLDSKKKLACGAVLIHPSWVLTAAHCMDESKKLLVRLGEYDLRRWEKWELDLDIKEVFVHPNYSKSTTDNDIALLHLAQPATLSQTIVPICLPDSGLAERELNQAGQETLVTGWGYHSSREKEAKRNRTFVLNFIKIPVVPHNECSEVMSNMVSENMLCAGILGDRQDACEGDSGGPMVASFHGTWFLVGLVSWGEGCGLLHNYGVYTKVSRYLDWIHGHIRDKEAPQKSWAP
B3: Angiopoietin-2 (Ang2) (protein)
chain: YNNFRKSMDSIGKKQYQVQHGSCSYTFLLPEMDNCRSSSSPYVSNAVQRDAPLEYDDSVQRLQVLENIMENNTQWLMKLENYIQDNMKKEMVEIQQNAVQNQTAVMIEIGTNLLNQTAEQTRKLTDVEAQVLNQTTRLELQLLEHSLSTNKLEKQILDQTSEINKLQDKNSFLEKKVLAMEDKHIIQLQSIKEEKDQLQVLVSKQNSIIEELEKKIVTATVNNSVLQKQQHDLMETVNNLLTMMSTSNSAKDPTVAKEEQISFRDCAEVFKSGHTTNGIYTLTFPNSTEEIKAYCDMEAGGGGWTIIQRREDGSVDFQRTWKEYKVGFGNPSGEYWLGNEFVSQLTNQQRYVLKIHLKDWEGNEAYSLYEHFYLSSEELNYRIHLKGLTGTAGKISSISQPGNDFSTKDGDNDKCICKCSQMLTGGWWFDACGPSNLNGMYYPQRQNTNKFNGIKWYYWKGSGYSLKATTMMIRPADF

The target in this assay is T1, Tie2 (Homo sapiens, UniProt Q02763).
T1 chain: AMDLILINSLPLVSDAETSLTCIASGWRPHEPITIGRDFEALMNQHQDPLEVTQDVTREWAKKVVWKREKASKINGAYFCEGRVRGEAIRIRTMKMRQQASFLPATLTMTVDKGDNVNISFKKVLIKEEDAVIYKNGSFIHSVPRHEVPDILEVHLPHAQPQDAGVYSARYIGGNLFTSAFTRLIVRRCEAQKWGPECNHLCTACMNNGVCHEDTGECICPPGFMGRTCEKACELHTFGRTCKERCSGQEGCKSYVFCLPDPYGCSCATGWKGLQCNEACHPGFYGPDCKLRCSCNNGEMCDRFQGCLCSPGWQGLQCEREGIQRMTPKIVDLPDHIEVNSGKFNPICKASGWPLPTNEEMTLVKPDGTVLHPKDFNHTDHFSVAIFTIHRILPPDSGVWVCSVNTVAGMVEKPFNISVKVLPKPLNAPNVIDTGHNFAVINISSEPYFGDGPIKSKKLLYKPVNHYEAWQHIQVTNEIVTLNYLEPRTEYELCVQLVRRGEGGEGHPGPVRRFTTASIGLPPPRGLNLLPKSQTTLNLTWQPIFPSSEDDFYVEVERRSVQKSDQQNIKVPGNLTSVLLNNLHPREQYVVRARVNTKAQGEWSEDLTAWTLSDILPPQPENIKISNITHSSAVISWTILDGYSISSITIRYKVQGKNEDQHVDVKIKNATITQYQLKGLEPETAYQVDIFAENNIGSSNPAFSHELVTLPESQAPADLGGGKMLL
The assay is described as follows: SPR (Biacore).
Take B1: binding was put at a Kd of 2 pM. With B2 the figure was 3 pM.

B3 showed a Kd of 32 pM.

For the origin of these results see article PMC6763540 (2013).
